Experimental data: patent publication US20200024360A1 (Janssen / Centocor, published 2020)
Like-named read-outs stand apart in the source and are kept apart here.

Legend:
[1] = biological target: T1, human PSMA (prostate specific membrane antigen), full length (human, UniProt Q04609 1-750); assay: cell-based or functional assay
[2] = biological target: T1, human PSMA (prostate specific membrane …); assay: flow cytometry cell binding assay, bispecific antibody titrated on LNCaP cells (human PSMA)
Experimental: (§1) PSMA×CD3 bispecific antibodies were tested for binding to PSMA positive cell lines LNCAP, human PSMA-HEK, Chimpanzee-PSMA-HEK and Cynomolgous monkey PSMA-HEK. To assess the binding capabilities of the PSMA bispecific antibodies, the cell-binding assay was utilized (described previously). Briefly, PSMA expressing tumor cells are bound by bispecific antibodies at known concentrations and the bound antibody is detected by an anti-human kappa light chain PE conjugated detection reagent (Invitrogen). The Mean Fluorescents Intensity (MFI) is the measure of bound bispecific antibody. The MFI is converted to a relative EC₅₀. EC₅₀ is a commonly used dose-response curve, where the half maximal effective concentration or the EC₅₀ point is defined as the inflection point of the curve. EC₅₀ s were determined by measuring cell bound bispecific and known concentrations. […] The dose response curves were then diluted down to that of background or no bispecific binding. The inflection point of this curve reflects the EC₅₀ point. The calculated EC₅₀ is determined by taking the ug/ml amount of bispecific antibody at the EC₅₀ point and converting it to a molarity value based on the MW of the bispecific antibody. Bispecific antibodies were normalized for protein concentration and then incubated with the same number of cells expressing either human or cyno PSMA. The MFI at each concentration was collected by flow cytometry and plotted as a function of concentration. Data was transformed via log 10 and then plotted. Nonlinear regression of binding curves was done to determine EC₅₀ s. These relative values were used for ranking PSMA binding to target cells.
PSMA×CD3 bispecific antibodies were tested for binding to PSMA positive cell line, LNCAP, to PSMA negative cell line, PC3. To assess the binding capabilities of the PSMA bispecific antibodies, the cell-binding assay was utilized (described previously). Bispecific antibodies were normalized for protein concentration and then incubated with the same number of cells expressing either human or cyno PSMA. The MFI at each concentration was collected by flow cytometry and plotted as a function of concentration.

[3] = biological target: T1, human PSMA (prostate specific membrane …); assay: as above; remark: listed apart in the source
Experimental: as §1, with “The MFI at each concentration was collected by flow cytometry and plotted as a function of concentration. Data was transformed via log 10 and then plotted. Nonlinear regression of binding curves was done to determine EC₅₀ s. These relative values were used for ranking PSMA binding to target cells.” left out

[4] = biological target: T1, human PSMA (prostate specific membrane …); assay: FACS, whole cell binding
[5] = biological target: T2, Cynomolgous monkey PSMA, full length (Macaca fascicularis, UniProt Q04609 1-750 (human entry)); assay: FACS, whole cell binding
T2 construct: On transfected HEK293F cells; also called cyno PSMA; EHH56646.1
T2 chain: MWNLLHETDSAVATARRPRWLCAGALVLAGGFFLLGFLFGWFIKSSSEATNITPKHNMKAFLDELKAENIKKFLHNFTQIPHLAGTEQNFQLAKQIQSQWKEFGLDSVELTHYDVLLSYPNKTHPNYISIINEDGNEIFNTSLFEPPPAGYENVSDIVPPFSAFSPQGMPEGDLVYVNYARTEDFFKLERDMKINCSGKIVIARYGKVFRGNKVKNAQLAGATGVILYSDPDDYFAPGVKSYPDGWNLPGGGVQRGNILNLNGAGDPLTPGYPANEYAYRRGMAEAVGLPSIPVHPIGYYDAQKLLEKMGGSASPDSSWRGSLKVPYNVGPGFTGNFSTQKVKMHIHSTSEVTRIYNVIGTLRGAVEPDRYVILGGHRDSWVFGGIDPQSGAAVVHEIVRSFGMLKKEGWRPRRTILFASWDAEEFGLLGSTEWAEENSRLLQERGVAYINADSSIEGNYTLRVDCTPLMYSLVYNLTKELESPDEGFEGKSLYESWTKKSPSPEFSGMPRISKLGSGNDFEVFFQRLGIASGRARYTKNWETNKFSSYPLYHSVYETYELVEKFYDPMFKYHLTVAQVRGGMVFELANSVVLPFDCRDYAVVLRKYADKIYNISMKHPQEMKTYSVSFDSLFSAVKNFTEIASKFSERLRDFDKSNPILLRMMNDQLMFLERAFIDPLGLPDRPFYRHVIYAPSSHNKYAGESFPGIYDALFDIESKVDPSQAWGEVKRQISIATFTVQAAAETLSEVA

[6] = biological target: T1, human PSMA (prostate specific membrane …); assay: flow cytometry, bispecific antibody titrated on LNCaP cells (human PSMA), anti-human kappa light chain PE
Experimental: as §1

[7] = biological target: T2, Cynomolgous monkey PSMA, full length; assay: flow cytometry, bispecific antibody titrated on cyno PSMA (PSMG5) HEK cells, anti-human kappa light chain PE
Experimental: as §1, with “The MFI at each concentration was collected by flow cytometry and plotted as a function of concentration. Data was transformed via log 10 and then plotted. Nonlinear regression of binding curves was done to determine EC₅₀ s. These relative values were used for ranking PSMA binding to target cells.” left out

B1: PS3B27 (bispecific antibody, human IgG4 S228P, kappa, lambda, F234A L235A)
heavy 1: not shown
light 1: not shown
heavy 2: EVQLVESGGGLVQPGGSLRLSCAASGFTFNTYAMNWVRQAPGKGLEWVARIRSKYNNYATYYAASVKGRFTISRDDSKNSLYLQMNSLKTEDTAVYYCARHGNFGNSYVSWFAYWGQGTLVTVSSASTKGPSVFPLAPCSRSTSESTAALGCLVKDYFPEPVTVSWNSGALTSGVHTFPAVLQSSGLYSLSSVVTVPSSSLGTKTYTCNVDHKPSNTKVDKRVESKYGPPCPPCPAPEAAGGPSVFLFPPKPKDTLMISRTPEVTCVVVDVSQEDPEVQFNWYVDGVEVHNAKTKPREEQFNSTYRVVSVLTVLHQDWLNGKEYKCKVSNKGLPSSIEKTISKAKGQPREPQVYTLPPSQEEMTKNQVSLTCLVKGFYPSDIAVEWESNGQPENNYKTTPPVLDSDGSFLLYSKLTVDKSRWQEGNVFSCSVMHEALHNHYTQKSLSLSLGK
light 2: QTVVTQEPSLTVSPGGTVTLTCRSSTGAVTTSNYANWVQQKPGQAPRGLIGGTNKRAPGTPARFSGSLLGGKAALTLSGVQPEDEAEYYCALWYSNLWVFGGGTKLTVLGQPKAAPSVTLFPPSSEELQANKATLVCLISDFYPGAVTVAWKADSSPVKAGVETTTPSKQSNNKYAASSYLSLTPEQWKSHRSYSCQVTHEGSTVEKTVAPTECS
notes: IgG4 PAA; PSMA arm chains first, then CD3 arm (F405L, R409K); also called PSMB127 x CD3B219; PS2B27
With B1 the “EC50, T-cell dependent cytotoxicity (caspase 3/7), C-42B, donor M2550” value [1] was 0.11 nM, the “EC50, T-cell dependent cytotoxicity (caspase 3/7), C-42B, donor M5524” value [1] was 0.06 nM and the “EC50, T-cell dependent cytotoxicity (caspase 3/7), C-42B, donor M5772” value [1] was 0.03 nM. The “EC50, T-cell dependent cytotoxicity (caspase 3/7), C-42B, donor M7259” value [1] was 0.06 nM, the “EC50, T-cell dependent cytotoxicity (caspase 3/7), C-42B, donor M7444” value [1] was 0.05 nM and the “EC50, T-cell dependent cytotoxicity (caspase 3/7), LNCaP FGc, donor M2550” value [1] was 0.27 nM. The “EC50, T-cell dependent cytotoxicity (caspase 3/7), LNCaP FGc, donor M5524” value [1] was 0.09 nM, the “EC50, T-cell dependent cytotoxicity (caspase 3/7), LNCaP FGc, donor M5772” value [1] was 0.04 nM and the “EC50, T-cell dependent cytotoxicity (caspase 3/7), LNCaP FGc, donor M7259” value [1] was 0.05 nM. The “EC50, T-cell dependent cytotoxicity (caspase 3/7), LNCaP FGc, donor M7444” value [1] was 0.09 nM, the “EC50 (read off the curve)” value [2] was ~7 nM and the “EC50 (read off the curve)” value [3] was ~7 nM.

B2: PS3B30 (bispecific antibody, human IgG4 S228P, kappa, lambda, F234A L235A)
heavy 1: not shown
light 1: not shown
heavy 2: EVQLVESGGGLVQPGGSLRLSCAASGFTFNTYAMNWVRQAPGKGLEWVARIRSKYNNYATYYAASVKGRFTISRDDSKNSLYLQMNSLKTEDTAVYYCARHGNFGNSYVSWFAYWGQGTLVTVSSASTKGPSVFPLAPCSRSTSESTAALGCLVKDYFPEPVTVSWNSGALTSGVHTFPAVLQSSGLYSLSSVVTVPSSSLGTKTYTCNVDHKPSNTKVDKRVESKYGPPCPPCPAPEAAGGPSVFLFPPKPKDTLMISRTPEVTCVVVDVSQEDPEVQFNWYVDGVEVHNAKTKPREEQFNSTYRVVSVLTVLHQDWLNGKEYKCKVSNKGLPSSIEKTISKAKGQPREPQVYTLPPSQEEMTKNQVSLTCLVKGFYPSDIAVEWESNGQPENNYKTTPPVLDSDGSFLLYSKLTVDKSRWQEGNVFSCSVMHEALHNHYTQKSLSLSLGK
light 2: QTVVTQEPSLTVSPGGTVTLTCRSSTGAVTTSNYANWVQQKPGQAPRGLIGGTNKRAPGTPARFSGSLLGGKAALTLSGVQPEDEAEYYCALWYSNLWVFGGGTKLTVLGQPKAAPSVTLFPPSSEELQANKATLVCLISDFYPGAVTVAWKADSSPVKAGVETTTPSKQSNNKYAASSYLSLTPEQWKSHRSYSCQVTHEGSTVEKTVAPTECS
notes: IgG4 PAA; PSMA arm chains first, then CD3 arm (F405L, R409K); also called PSMB130 x CD3B219
In the case of B2, the EC50 [4] is reported as 8 to 8.5 nM and the EC50 [5] is reported as 37.8 to 57 nM.

B3: PS3B23 (bispecific antibody, human IgG4 S228P, kappa, lambda, F234A L235A)
heavy 1: not shown
light 1: not shown
heavy 2: EVQLVESGGGLVQPGGSLRLSCAASGFTFNTYAMNWVRQAPGKGLEWVARIRSKYNNYATYYAASVKGRFTISRDDSKNSLYLQMNSLKTEDTAVYYCARHGNFGNSYVSWFAYWGQGTLVTVSSASTKGPSVFPLAPCSRSTSESTAALGCLVKDYFPEPVTVSWNSGALTSGVHTFPAVLQSSGLYSLSSVVTVPSSSLGTKTYTCNVDHKPSNTKVDKRVESKYGPPCPPCPAPEAAGGPSVFLFPPKPKDTLMISRTPEVTCVVVDVSQEDPEVQFNWYVDGVEVHNAKTKPREEQFNSTYRVVSVLTVLHQDWLNGKEYKCKVSNKGLPSSIEKTISKAKGQPREPQVYTLPPSQEEMTKNQVSLTCLVKGFYPSDIAVEWESNGQPENNYKTTPPVLDSDGSFLLYSKLTVDKSRWQEGNVFSCSVMHEALHNHYTQKSLSLSLGK
light 2: QTVVTQEPSLTVSPGGTVTLTCRSSTGAVTTSNYANWVQQKPGQAPRGLIGGTNKRAPGTPARFSGSLLGGKAALTLSGVQPEDEAEYYCALWYSNLWVFGGGTKLTVLGQPKAAPSVTLFPPSSEELQANKATLVCLISDFYPGAVTVAWKADSSPVKAGVETTTPSKQSNNKYAASSYLSLTPEQWKSHRSYSCQVTHEGSTVEKTVAPTECS
notes: IgG4 PAA; PSMA arm chains first, then CD3 arm (F405L, R409K); also called PSMB123 x CD3B219
B3: binds [6].

B4: PS3B25 (bispecific antibody, human IgG4 S228P, kappa, lambda, F234A L235A)
heavy 1: not shown
light 1: not shown
heavy 2: EVQLVESGGGLVQPGGSLRLSCAASGFTFNTYAMNWVRQAPGKGLEWVARIRSKYNNYATYYAASVKGRFTISRDDSKNSLYLQMNSLKTEDTAVYYCARHGNFGNSYVSWFAYWGQGTLVTVSSASTKGPSVFPLAPCSRSTSESTAALGCLVKDYFPEPVTVSWNSGALTSGVHTFPAVLQSSGLYSLSSVVTVPSSSLGTKTYTCNVDHKPSNTKVDKRVESKYGPPCPPCPAPEAAGGPSVFLFPPKPKDTLMISRTPEVTCVVVDVSQEDPEVQFNWYVDGVEVHNAKTKPREEQFNSTYRVVSVLTVLHQDWLNGKEYKCKVSNKGLPSSIEKTISKAKGQPREPQVYTLPPSQEEMTKNQVSLTCLVKGFYPSDIAVEWESNGQPENNYKTTPPVLDSDGSFLLYSKLTVDKSRWQEGNVFSCSVMHEALHNHYTQKSLSLSLGK
light 2: QTVVTQEPSLTVSPGGTVTLTCRSSTGAVTTSNYANWVQQKPGQAPRGLIGGTNKRAPGTPARFSGSLLGGKAALTLSGVQPEDEAEYYCALWYSNLWVFGGGTKLTVLGQPKAAPSVTLFPPSSEELQANKATLVCLISDFYPGAVTVAWKADSSPVKAGVETTTPSKQSNNKYAASSYLSLTPEQWKSHRSYSCQVTHEGSTVEKTVAPTECS
notes: IgG4 PAA; also called PSMB87 x CD3B219
B4: binds [7].
